Measurements published in patent US20220273789A1.

Each substance was assayed against human IgG (human) (assay: BLI (Octet), gEgI on Ni-NTA sensor, hIgG in solution).
“HSV2-gE_R314G P318D_gI (from UniProt P89475 21-416; P06764 21-256) (receptor)” gave a Kd of 369 nM, a Response of 0.122 nm and a koff of 0.0033 s⁻¹. It also gave a kon of 8930 M⁻¹ s⁻¹.
For “HSV2-gE_P317K V340W_gI (from UniProt P89475 21-416; P06764 21-256) (receptor)”, the Kd was 517 nM, the Response was 0.111 nm and the koff was 0.00348 s⁻¹. The kon was 6740 M⁻¹ s⁻¹.
In the case of “HSV2-gE_P318I S338H_gI (from UniProt P89475 21-416; P06764 21-256) (receptor)”, the Kd is reported as 286 nM, the Response is reported as 0.252 nm and the koff is reported as 0.0025 s⁻¹. For the same substance, the kon was 8740 M⁻¹ s⁻¹.
For “HSV2-gE_P319L V340R_gI (from UniProt P89475 21-416; P06764 21-256) (receptor)”, the Kd was 160 nM, the Response was 0.509 nm and the koff was 0.00141 s⁻¹. It also gave a kon of 8770 M⁻¹ s⁻¹.
“HSV2-gE_P319G V340R_gI (from UniProt P89475 21-416; P06764 21-256) (receptor)” showed a Kd of 197 nM, a Response of 0.287 nm and a koff of 0.00137 s⁻¹. The kon was 6960 M⁻¹ s⁻¹.
“HSV2-gE_R314G P318R_gI (from UniProt P89475 21-416; P06764 21-256) (receptor)” was tested, and the Kd was 148 nM, the Response was 0.22 nm and the koff was 0.000833 s⁻¹. It also gave a kon of 5640 M⁻¹ s⁻¹.
In the case of “HSV2-gE_R314L P318R_gI (from UniProt P89475 21-416; P06764 21-256) (receptor)”, the Kd is reported as < 0.001 nM, the Response is reported as 0.202 nm and the koff is reported as < 1e-07 s⁻¹. It also gave a kon of 8050 M⁻¹ s⁻¹.
With “HSV2-gE_P317K S338L_gI (from UniProt P89475 21-416; P06764 21-256) (receptor)” the Kd was 252 nM, the Response was 0.334 nm and the koff was 0.0016 s⁻¹. For the same substance, the kon was 6350 M⁻¹ s⁻¹.
For “HSV2-gE_P317F V340W_gI (from UniProt P89475 21-416; P06764 21-256) (receptor)”, the Kd was 577 nM, the Response was 0.116 nm and the koff was 0.00414 s⁻¹. It also gave a kon of 7170 M⁻¹ s⁻¹.
For “HSV2-gE_R314L P318D_gI (from UniProt P89475 21-416; P06764 21-256) (receptor)”, the Kd was < 0.001 nM, the Response was 0.134 nm and the koff was < 1e-07 s⁻¹. The kon was 7900 M⁻¹ s⁻¹.
With “HSV2-gE_P317S S338G_gI (from UniProt P89475 21-416; P06764 21-256) (receptor)” the Kd was 302 nM, the Response was 0.595 nm and the koff was 0.00453 s⁻¹. For the same substance, the kon was 15000 M⁻¹ s⁻¹.
With “HSV2-gE_R314P F322A_gI (from UniProt P89475 21-416; P06764 21-256) (receptor)” the Kd was 247 nM, the Response was 0.655 nm and the koff was 0.00423 s⁻¹. The kon was 17100 M⁻¹ s⁻¹.
Work on “HSV2-gE_P317F S338G_gI (from UniProt P89475 21-416; P06764 21-256) (receptor)” yielded a Kd of 399 nM, a Response of 0.153 nm and a koff of 0.00248 s⁻¹. It also gave a kon of 6220 M⁻¹ s⁻¹.
“HSV2-gE_R314G F322P_gI (from UniProt P89475 21-416; P06764 21-256) (receptor)” gave a Kd of 181 nM, a Response of 0.439 nm and a koff of 0.00209 s⁻¹. It also gave a kon of 11500 M⁻¹ s⁻¹.
“HSV2-gE_R314G F322A_gI (from UniProt P89475 21-416; P06764 21-256) (receptor)” showed a Kd of 232 nM, a Response of 0.469 nm and a koff of 0.00328 s⁻¹. For the same substance, the kon was 14200 M⁻¹ s⁻¹.
For “HSV2-gE_P319L V340W_gI (from UniProt P89475 21-416; P06764 21-256) (receptor)”, the Kd was 230 nM, the Response was 0.139 nm and the koff was 0.00217 s⁻¹. The kon was 9450 M⁻¹ s⁻¹.
Work on “HSV2-gE_P317S V340R_gI (from UniProt P89475 21-416; P06764 21-256) (receptor)” yielded a Kd of 277 nM, a Response of 0.403 nm and a koff of 0.00191 s⁻¹. For the same substance, the kon was 6890 M⁻¹ s⁻¹.
“HSV2-gE_R314G V340M_gI (from UniProt P89475 21-416; P06764 21-256) (receptor)” gave a Kd of 390 nM, a Response of 0.466 nm and a koff of 0.00401 s⁻¹. For the same substance, the kon was 10300 M⁻¹ s⁻¹.
In the case of “HSV2-gE_P317F V340M_gI (from UniProt P89475 21-416; P06764 21-256) (receptor)”, the Kd is reported as 291 nM, the Response is reported as 0.259 nm and the koff is reported as 0.00189 s⁻¹. It also gave a kon of 6510 M⁻¹ s⁻¹.
